These results are taken from PMC10973816.

A short description of data set [1]: Non-permeabilised mAb-1438 immunolabelling, HEK, mGluR6-EGFP. As to conditions: glycan lost; control: wild type mGluR6-EGFP.
The nature of data set [2]: EGFP in TRPM1-positive OPL puncta, electroporated mouse retina. Conditions: glycan lost; control: wild type mGluR6-EGFP.
The nature of data set [3]: Non-permeabilised mAb-1438 immunolabelling, HEK, untagged. As to conditions: glycan lost; control: wild type.
Data set [4] is described as follows: Total EGFP fluorescence, HEK. As to conditions: glycan lost; control: wild type mGluR6-EGFP.
A short description of data set [5]: Permeabilised mAb-1438 immunolabelling, HEK, untagged. As to conditions: glycan lost; control: wild type.

B1: mGluR6 (metabotropic glutamate receptor 6): N445Q (protein)
parent chain: MGRLRVLLLWLAWWLSQAGIAHGAGSVRLAGGLTLGGLFPVHARGAAGRACGTLKKEQGVHRLEAMLYALDRINADPELLPGVRLGARLLDTCSRDTYALEQALSFVQALIRGRGDGEEASVRCPGGVPPLRAAPPERVVAVVGASASSVSIMVANVLRLFAIPQISYASTAPELSDSTRYDFFSRVVPPDSYQAQAMVDIVRALGWNYVSTLASEGNYGESGVEAFVQISREAGGVCIAQSIKIPREPKPGEFHKVIRRLMETPNARGIIIFANEDDIRRVLEATRQANLTGHFLWVGSDSWGSKISPILNLEEEAVGAITILPKRASIDGFDQYFMTRSLENNRRNIWFAEFWEENFNCKLTSSGGQSDDSTRKCTGEERIGQDSTYEQEGKVQFVIDAVYAIAHALHSMHQALCPGHTGLCPAMEPTDGRTLLHYIRAVRFNGSAGTPVMFNENGDAPGRYDIFQYQATNGSASSGGYQAVGQWAEALRLDMEALQWSGDPHEVPPSQCSLPCGPGERKKMVKGVPCCWHCEACDGYRFQVDEFTCEACPGHMRPTPNHTGCRPTPVVRLTWSSPWAALPLLLAVLGIMATTTIIATFMRHNDTPIVRASGRELSYVLLTGIFLIYAITFLMVAEPCAAVCASRRLLLGLGTTLSYSALLTKTNRIYRIFEQGKRSVTPPPFISPTSQLVITFGLTSLQVVGVIAWLGAQPPHSVIDYEEQRTVDPEQARGVLKCDMSDLSLIGCLGYSLLLMVTCTVYAIKARGVPETFNEAKPIGFTMYTTCIIWLAFVPIFFGTAQSAEKIYIQTTTLTVSLSLSASVSLGMLYVPKTYVILFHPEQNVQKRKRSLKKTSTMAAPPKSENSEDAK
For the protein B1, the figures for the localisation_or_trafficking result in data set [1], in data set [2] and in data set [3] were “decreases”, “no change” and “decreases”, respectively.

B2: mGluR6 (metabotropic glutamate receptor 6): 4Q (protein)
parent chain: B1 parent chain
As to B2, the localisation_or_trafficking entry in data set [2] and in data set [3] was “abolishes” throughout. Moreover, the expression_or_secretion result in data set [4] and in data set [5] was “decreases” throughout.

B3: mGluR6 (metabotropic glutamate receptor 6): N561Q (protein)
parent chain: B1 parent chain
As to B3, the localisation_or_trafficking result was “decreases” in data set [1], “no change” in data set [2] and “decreases” in data set [3]. Further, the expression_or_secretion result in data set [4] is “decreases”.
